From paper PMC3154878

Assay: cycloheximide chase, Western blot, Hepa1A
Settings: glycan lost; control: wild type

B1: ERManI: ERManIO-def (protein)
parent chain: MAACEGRRSGALGSSQSDFLTPPVGGAPWAVATTVVMYPPPPPPPHRDFISVTLSFGENYDNSKSWRRRSCWRKWKQLSRLQRNMILFLLAFLLFCGLLFYINLADHWKALAFRLEEEQKMRPEIAGLKPANPPVLPAPQKADTDPENLPEISSQKTQRHIQRGPPHLQIRPPSQDLKDGTQEEATKRQEAPVDPRPEGDPQRTVISWRGAVIEPEQGTELPSRRAEVPTKPPLPPARTQGTPVHLNYRQKGVIDVFLHAWKGYRKFAWGHDELKPVSRSFSEWFGLGLTLIDALDTMWILGLRKEFEEARKWVSKKLHFEKDVDVNLFESTIRILGGLLSAYHLSGDSLFLRKAEDFGNRLMPAFRTPSKIPYSDVNIGTGVAHPPRWTSDSTVAEVTSIQLEFRELSRLTGDKKFQEAVEKVTQHIHGLSGKKDGLVPMFINTHSGLFTHLGVFTLGARADSYYEYLLKQWIQGGKQETQLLEDYVEAIEGVRTHLLRHSEPSKLTFVGELAHGRFSAKMDHLVCFLPGTLALGVYHGLPASHMELAQELMETCYQMNRQMETGLSPEIVHFNLYPQPGRRDVEVKPADRHNLLRPETVESLFYLYRVTGDRKYQDWGWEILQSFSRFTRVPSGGYSSINNVQDPQKPEPRDKMESFFLGETLKYLFLLFSDDPNLLSLDAYVFNTEAHPLPIWTPA
**Q.** With B1 as the protein, how does the degradation_or_half_life read?
**A.** Its degradation_or_half_life is “no change”.
